{"source": "patent US11795488B2", "about": "“Methods for enzymatic peptide ligation” (NANYANG TECHNOLOGICAL UNIVERSITY, priority 2016, dated 2023)", "molecules": {"B1": {"name": "Asn346Ala-Gln347Ala (protein)", "chain": "MVRYLAGAVLLLVVLSVAAAVSGARDGDYLHLPSEVSRFFRPQETNDDHGEDSVGTRWAVLIAGSKGYANYRHQAGVCHAYQILKRGGLKDENIVVFMYDDIAYNESNPRPGVIINSPHGSDVYAGVPKDYTGEEVNAKNFLAAILGNKSAITGGSGKVVDSGPNDHIFIYYTDHGAAGVIGMPSKPYLYADELNDALKKKHASGTYKSLVFYLEACESGSMFEGILPEDLNIYALTSTNTTESSWCYYCPAQENPPPPEYNVCLGDLFSVAWLEDSDVQNSWYETLNQQYHHVDKRISHASHATQYGNLKLGEEGLFVYMGSNPANDNYTSLDGNALTPSSIVVAARDADLLHLWEKFRKAPEGSARKEEAQTQIFKAMSHRVHIDSSIKLIGKLLFGIEKCTEILNAVRPAGQPLVDDWACLRSLVGTFETHCGSLSEYGMRHTRTIANICNAGISEEQMAEAASQACASIP"}, "B2": {"name": "Cys247Gly: OaAEP1 gate-keeper mutant Cys247 to Gly (protein)", "chain": "MVRYLAGAVLLLVVLSVAAAVSGARDGDYLHLPSEVSRFFRPQETNDDHGEDSVGTRWAVLIAGSKGYANYRHQAGVCHAYQILKRGGLKDENIVVFMYDDIAYNESNPRPGVIINSPHGSDVYAGVPKDYTGEEVNAKNFLAAILGNKSAITGGSGKVVDSGPNDHIFIYYTDHGAAGVIGMPSKPYLYADELNDALKKKHASGTYKSLVFYLEACESGSMFEGILPEDLNIYALTSTNTTESSWGYYCPAQENPPPPEYNVCLGDLFSVAWLEDSDVQNSWYETLNQQYHHVDKRISHASHATQYGNLKLGEEGLFVYMGSNPANDNYTSLDGNALTPSSIVVNQRDADLLHLWEKFRKAPEGSARKEEAQTQIFKAMSHRVHIDSSIKLIGKLLFGIEKCTEILNAVRPAGQPLVDDWACLRSLVGTFETHCGSLSEYGMRHTRTIANICNAGISEEQMAEAASQACASIP"}, "B3": {"name": "Asn346Ala-Asp349Ala-Asp351Ala (protein)", "chain": "MVRYLAGAVLLLVVLSVAAAVSGARDGDYLHLPSEVSRFFRPQETNDDHGEDSVGTRWAVLIAGSKGYANYRHQAGVCHAYQILKRGGLKDENIVVFMYDDIAYNESNPRPGVIINSPHGSDVYAGVPKDYTGEEVNAKNFLAAILGNKSAITGGSGKVVDSGPNDHIFIYYTDHGAAGVIGMPSKPYLYADELNDALKKKHASGTYKSLVFYLEACESGSMFEGILPEDLNIYALTSTNTTESSWCYYCPAQENPPPPEYNVCLGDLFSVAWLEDSDVQNSWYETLNQQYHHVDKRISHASHATQYGNLKLGEEGLFVYMGSNPANDNYTSLDGNALTPSSIVVAQRAAALLHLWEKFRKAPEGSARKEEAQTQIFKAMSHRVHIDSSIKLIGKLLFGIEKCTEILNAVRPAGQPLVDDWACLRSLVGTFETHCGSLSEYGMRHTRTIANICNAGISEEQMAEAASQACASIP"}, "B4": {"name": "Asp349Ala-Asp351Ala (protein)", "chain": "MVRYLAGAVLLLVVLSVAAAVSGARDGDYLHLPSEVSRFFRPQETNDDHGEDSVGTRWAVLIAGSKGYANYRHQAGVCHAYQILKRGGLKDENIVVFMYDDIAYNESNPRPGVIINSPHGSDVYAGVPKDYTGEEVNAKNFLAAILGNKSAITGGSGKVVDSGPNDHIFIYYTDHGAAGVIGMPSKPYLYADELNDALKKKHASGTYKSLVFYLEACESGSMFEGILPEDLNIYALTSTNTTESSWCYYCPAQENPPPPEYNVCLGDLFSVAWLEDSDVQNSWYETLNQQYHHVDKRISHASHATQYGNLKLGEEGLFVYMGSNPANDNYTSLDGNALTPSSIVVNQRAAALLHLWEKFRKAPEGSARKEEAQTQIFKAMSHRVHIDSSIKLIGKLLFGIEKCTEILNAVRPAGQPLVDDWACLRSLVGTFETHCGSLSEYGMRHTRTIANICNAGISEEQMAEAASQACASIP"}, "B5": {"name": "AEP_C13C04: Peptidase C13, legumain [OMO86616.1] from Corchorus olitorius, SEQ ID NO:8 (protein, listed as Corchorus olitorius)", "chain": "MTRLVAGVILLLLSVTGIASAGRDATGDVLRLPSEASRFFRPSDDDEVGTRWAVLIAGSNGYWNYRHQADVCHAYQLLKKGGLKDENIIVFMYDDIAFNYENPRQGIIINSPHGDDVYQDVPKDYTGEEVTVHNFLAAILGNKTAIKGGSGKVVDSGPNDHIFIYYTDHGGPGVLGMPTYPYLYADELIDTLKKKHASGTYKSLVFYLEACESGSIFEGLLPEGLNIYATTASNADESSWGTYCPGEYPSPPPEYETCLGDLYSVAWMEDSDLHNLRTETLHQQYELVKRRTLNGNSAYGSHVMQYGDVGLAKEHLFLYLGTNPANDNFTFIDENSLQPPAKAVNQRDADLVHFWDKYRKAPDGSVRKVEAQKQVVEAMSHRMHVDNSIQLIGKLLFGIERGADVLKTVRPAGQPLVDDWKCLKSMVRTFETHCGSLAQYGMKHMRSIANICNAGIQTEQMAEASSQACVSIPSGQWSSIQKGFSA"}}, "key": {"OaAEP1": {"system": "OaAEP1", "experiment": "Self-activation (acid-induced self-cleavage) of OaAEP1 and mutants, SDS PAGE", "assay_type": "biochemical, Oldenlandia affinis", "details": "acidic pH", "description": "To self-activate OaAEP1, 1 mM EDTA and 0.5 mM Tris (2-carboxyethyl) phosphine hydrochloride were added to the immature protein and the pH of the solution was adjusted to 4 with glacial acetic acid. Fractions containing the protein (as analyzed by SDS-PAGE) were pooled and then incubated for 3 to 16 hours at room temperature or 37° C. Protein precipitation at this pH allowed removal of the bulk of the contaminating proteins by centrifugation. Activated proteins were concentrated by ultracentrifugation using a 50 kDa cutoff concentrator (Sartorius) and stored at −80° C.\nOaAEP1 was cloned and expressed in E. coli as an ubiquitin fusion protein as reported earlier (FIG. 2) (Harris, K. S., et al., Nat Commun, 2015. 6: p. 10199). Using ion exchange and size exclusion chromatography (SEC), sufficient amounts of pure protein suitable for enzymatic and structural analysis were obtained (FIG. 2B). At the neutral pH of purification (pH=7.4), OaAEP1 was mainly present as a heterodimer, where both monomers are in their zymogenic form, but only one monomer had retained in addition the ubiquitin and N-terminal His-tag, while the fusion moiety was cleaved in the other monomer (labeled as “His-Ub-AEP-FL” and “AEP-FL” in FIG. 2B and FIG. 2C). This heterodimer was subjected to crystallization trials for structural studies (see below). In agreement with reference (Harris, K. S., et al., Nat Commun, 2015. 6: p. 10199), activation of OaAEP1 was optimum for pH values in the range of 3.4-4.0 (FIG. 2D). Following activation, OaAEP1 converts to a monomer in solution according to SEC analysis (“AEP-holo” in FIG. 2C). To test the ability of the protein to be activated in trans, the catalytic residue Cys217 was mutated into Ser217.\nSince the crystallization conditions are compatible with OaAEP1 activation, the present crystal structure is likely to have captured one of the conformational states occurring along the activation pathway. To determine whether Gln347 belongs to the segment recognized and cleaved during self-activation, mutagenesis experiments targeting region 346-351 of the OaAEP1 protein were performed (FIG. 4C). The role of Gln347 in OaAEP1 auto-activation was particularly assessed by mutating this residue to Ala, and whether enzyme activation was abolished was examined. Only little impact was found on the mutant enzyme activation (FIG. 4C). Residues Asn346, Asp349 and Asp351 that are next to Gln347 were then targeted. […] Thus, trans-activation requires the presence of at least one of the four Asx/Gln residues (with a slight preference for Asp349 or Asp351) found in this segment of the linker."}, "peptide substrate": {"system": "peptide substrate", "experiment": "Comparison of cyclization efficiency of gate-keeper Cys247 mutants (MALDI-TOF MS)", "assay_type": "biochemical", "description": "Native and modified amino acids were purchased from Sigma-Aldrich (USA). All peptides used in this manuscript were synthesized in-house using the solid-phase method and HPLC purified. Cyclization assays were performed in 50-μl reaction mixtures containing 20 mM phosphate buffer, ligases (5 to 700 nM) and peptide substrates (10 to 300 μM). Each reaction was performed in triplicate at 37° C. and quenched by adding 5 μl of 1 M HCl solution. The peptides were separated by using a reversed-phase C18 analytical column (150×2.1 mm, Vydac) with a linear gradient from 10% to 50% acetonitrile over 15 min on a Nexera UHPLC system (Shimadzu). For kinetic analysis, the concentrations of WT OaAEP1, mutant OaAEP1, and butelase 1 were fixed at 700 nM, 50 nM, and 20 nM, respectively. The cyclization velocities were calculated by converting the HPLC-peak areas of remained linear precursors or the cyclized products into concentrations. The identity of each HPLC peak was analyzed by MALDI-TOF MS (ABI 4800 MALDI TOF/TOF). The velocities were input into GraphPad Prism (GraphPad Software, San Diego) to obtain the Michaelis-Menten curve and the kinetic parameters (kcat and Km). Comparison for the cyclization efficiency of various OaAEP1 mutants were performed in a volume of 20 μl of the reaction mixture and analyzed by MALDI-TOF MS after 10 mins or 1 hour ligation reaction.\nThe pre-ligation conformation of OaAEP1 captured in the present structure was then analyzed to identify several key features that could differentiate an AEP protease from an AEP-like ligase. […] In contrast to AEP proteases, the surface of OaAEP1 facing the catalytic Cys217 appears to be more widely open. Three cysteine residues (Cys247, Cys250, Cys264) are aligned along a shallow cleft at the surface of the enzyme (FIGS. 3C and 3E). Unlike the surface of AEP proteases that contains several bulges, both butelase 1 (using a homology model based on OaAEP1b) and OaAEP1 have residues with smaller side-chains along this patch. A disulfide bond is formed between Cys250 and Cys264, which are conserved in AEP-like ligases butelase 1 and OaAEP1b. This covalent bond is likely to stabilize the local structure and provide an adequate surface allowing the approach of an N-terminal amine incoming group. Conversely, the corresponding surface patch of AEP proteases (PDB: 4AWA) is lined with residues having bulky side-chains like Tyr (FIG. 3E) blocking this channel. It was therefore hypothesized that residue Cys247 which is located at the extremity of the substrate channel is likely to function as a final nucleophile filter (or “gate-keeper”), allowing attack from the N-terminal amine to complete the ligation reaction. […]"}, "[1]": {"experiment": "Proteolytic and protein ligation activity of AEP_C13C04", "assay_type": "biochemical", "source_text": "Based on the prediction of the sequence alignment, AEP_C13C04 contained the conserved structural motif identical to Quicklase (247-264). […] The cDNA of AEP_C13C04 was then subsequently synthesized and subcloned into pet28b in a similar way as Quicklase."}}, "note": "Read-outs that look alike come from different tables or passages of the source.", "data": [{"molecule": "B1", "values": [{"measurement": "self-activation (auto-activation)", "setting": "OaAEP1", "value": "can still be activated"}]}, {"molecule": "B2", "values": [{"measurement": "alternative reaction when N-terminal amine is not available", "setting": "peptide substrate; N-terminal amine group acetylated", "value": "catalyzes peptide hydrolysis as alternative reaction"}, {"measurement": "ligase activity compared to WT OaAEP1", "setting": "peptide substrate; gate-keeper position 247 mutants", "value": "negatively affects the ligase activity"}]}, {"molecule": "B3", "values": [{"measurement": "self-activation (auto-activation)", "setting": "OaAEP1", "value": "can still be activated"}, {"measurement": "self-activation (auto-activation)", "setting": "OaAEP1; listed as A3", "value": "more severe loss of function phenotype"}]}, {"molecule": "B4", "values": [{"measurement": "self-activation (auto-activation)", "setting": "OaAEP1", "value": "can still be activated"}]}, {"molecule": "B5", "values": [{"measurement": "byproducts", "setting": "[1]", "value": "significant byproducts of proteolytic reactions"}, {"measurement": "proteolytic and protein ligation activities", "setting": "[1]", "value": "exhibited both proteolytic and protein ligation activities"}, {"measurement": "proteolytic and protein ligation activities", "setting": "[1]; listed as AEP_C13CO4", "value": "is a peptide ligase having the activity of OaAEP1 Cys247Ala"}, {"measurement": "enzymatic catalytic efficiency compared with Quicklase", "setting": "[1]; wild type AEP_C13C04", "value": "much slower"}]}]}
